The target in experiment [1] is T1, CD13/aminopeptidase N (CD13/APN), isolated from octylglucoside cell extracts (Homo sapiens (Human), UniProt P15144 2-967).
T1 construct: The source cell lines are human; also called NGR receptor; immuno-isolated CD13
Nature of the experiment: peptide affinity chromatography of cell extracts. The method, then:
(§1) To further characterize the interaction of CD13/APN with the NGR peptide, affinity chromatography on the CNGRC peptide was performed. The column was prepared by coupling the CNGRC peptide to SEPHAROSE (Pharmacia; Piscataway N.J.). Elution was effected with soluble CNGRC peptide. Experiments were performed using HL-60 cell extracts because they are known to express CD13/APN without other proteases that could interfere in the APN assay (Xu et al., supra (1997)). Thus, in HL-60 cell extracts, all detectable cell surface enzymatic activity is inhibitable by anti-CD13 blocking antibodies, assuring specificity. Extracts of Molt-4 and MDA-MB-435 cells transfected with CD13/APN were also characterized by using affinity chromatography, with extracts of the mock transfected counterparts used as negative controls.
(§2) Briefly, CD13 was detected by testing aliquots of each fraction for the presence of CD13 immunoreactivity in ELISA with the anti-CD13 monoclonal antibody WM15, using normal mouse IgG as a negative control. The fractions were also analyzed for CD13 enzymatic activity using AlapNA as the substrate. […] Furthermore, no CD13 activity was recovered from the CNGRC column when the extract fractionated was derived from CD13-negative cells (see FIG. 6).

The target in experiment [2] is T2, CD13/aminopeptidase N on CD13-transfected cells (Molt-4/CD13, MDA-MB-435/CD13) (Homo sapiens (Human), UniProt P15144 2-967).
T2 construct: The parental lines express no endogenous CD13; The transfected construct is not described; also called CD13/APN
T2 sequence (P15144 2-967 R86Q limits assumed): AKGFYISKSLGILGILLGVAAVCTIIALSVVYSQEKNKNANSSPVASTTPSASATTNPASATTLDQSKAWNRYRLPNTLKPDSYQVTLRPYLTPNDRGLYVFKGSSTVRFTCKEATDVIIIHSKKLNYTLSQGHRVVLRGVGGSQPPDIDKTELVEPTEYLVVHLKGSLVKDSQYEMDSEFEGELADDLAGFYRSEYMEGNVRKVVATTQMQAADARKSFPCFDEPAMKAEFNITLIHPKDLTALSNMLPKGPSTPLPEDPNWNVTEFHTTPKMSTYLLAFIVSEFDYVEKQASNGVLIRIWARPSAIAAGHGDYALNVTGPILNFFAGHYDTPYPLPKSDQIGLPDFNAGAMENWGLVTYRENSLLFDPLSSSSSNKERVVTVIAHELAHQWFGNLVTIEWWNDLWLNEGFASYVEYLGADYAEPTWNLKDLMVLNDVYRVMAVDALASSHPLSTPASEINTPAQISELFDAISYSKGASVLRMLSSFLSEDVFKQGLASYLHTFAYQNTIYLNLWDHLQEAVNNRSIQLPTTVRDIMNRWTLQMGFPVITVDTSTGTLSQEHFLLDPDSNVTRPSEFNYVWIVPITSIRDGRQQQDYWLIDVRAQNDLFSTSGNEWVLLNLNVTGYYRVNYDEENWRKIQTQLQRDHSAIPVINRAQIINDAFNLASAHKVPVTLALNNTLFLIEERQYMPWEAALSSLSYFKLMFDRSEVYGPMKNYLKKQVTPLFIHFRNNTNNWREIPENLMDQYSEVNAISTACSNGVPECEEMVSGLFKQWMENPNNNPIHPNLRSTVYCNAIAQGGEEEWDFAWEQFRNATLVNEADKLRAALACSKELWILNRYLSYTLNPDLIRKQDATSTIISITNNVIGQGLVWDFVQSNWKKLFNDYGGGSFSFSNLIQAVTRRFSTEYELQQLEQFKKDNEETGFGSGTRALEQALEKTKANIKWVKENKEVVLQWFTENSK
Description: competition with CNGRC phage on CD13-transfected cells; peptide at 250 and 500 ug/ml. Here is the method: The CNGRC phage binds specifically to cells transfected with CD13. […] Briefly, mock transfected Molt-4 cells (“Molt-4/mock”) and cells transfected with CD13 (“Molt-4/CD13”) were incubated with CNGRC (SEQ ID NO:8) phage or with control Fd phage lacking an insert (2× 10^9 transducing units (TU) per sample). […] After extensive washing, bound phage were quantitated by infection of bacteria as described above.

Experiment [3] concerns the target T1, CD13/aminopeptidase N (CD13/APN), …. Nature of the experiment: affinity chromatography of Molt-4/CD13, MDA-MB-435/CD13 or HL-60 cell extracts on CNGRC-SEPHAROSE
Here is the method:
as §1, §2

These results are taken from patent US20030113320A1 (BURNHAM INSTITUTE, published 2003).

Where no end group is shown, it is not given here.

T1 sequence (P15144 2-967 R86Q limits assumed): as above

B1: CARAC peptide (SEQ ID NO:221) (peptide)
peptide: CARAC
notes: also called negative control CARAC; control peptide
As to B1, the binding result in experiment [1] was “no binding”.

B2: CNGRC cyclic peptide (SEQ ID NO:8) (peptide)
peptide: CNGRC
modifications: also: cyclized (cyclic peptide), ring type not given here
notes: also called NGR cyclic peptide; soluble CNGRC peptide
In the case of B2, the binding result in experiment [2] and in experiment [3] was “binds” throughout.
